{"source": "paper PMC8244865", "about": "“Recruitment of phospholipase Cγ1 to the non-structural membrane protein pK15 of Kaposi Sarcoma-associated herpesvirus promotes its Src-dependent phosphorylation” (PLoS Pathogens, 2021)", "molecules": {"B1": {"name": "pK15 CT^WT: pK15 cytoplasmic tail fused to GST at its N-terminal end, phosphorylated in vitro by Src (protein)", "chain": "SQLLNEVELQEVNRDPPNVFGYASILVSGAEESREPSPQPDQSGMSILRVDGGSAFRIDTAQAATQPTDDLYEEVLFPRN", "modifications": "tyrosine-phosphorylated in vitro by Src; sites not stated for this construct; left off: GST, N-terminal, kept"}}, "assay_type_in_all_cases": "binding", "key": {"[1]": {"system": "PLCγ1 nSH2 domain (in tSH2 aa 545–772)", "test": "crystal structure with truncated PLCγ1 tSH2, nSH2 site", "settings": "truncated tSH2 (aa 545–772), resolution 2.1 Å", "method": "A shortened version of the PLCγ1 tSH2 domain (aa 545–772) lacking the linker peptide connecting the PLCγ1 cSH2 and SH3 domains (see Results section) was cloned into a pET28a vector carrying an N-terminal His Tag and a SUMO sequence. Expression was carried out in E. coli and the protein was purified to homogeneity as described above. His-Tag and SUMO were proteolytically removed using SUMO protease (SIGMA) following the manufacturer’s instructions, and the cleaved protein purified on a HisTrap column. Fractions containing cleaved protein were further purified by size exclusion chromatography (SEC) using a Superdex 75 26/600 column (GE Healthcare) equilibrated with 50mM Tris pH7.5, 150mM NaCl and 1mM TCEP buffer. The purified protein in SEC buffer was added to lyophilized phosphorylated 12mer pK15 peptide (DDLpYEEVLFPRN) in a 1:8 molar ratio (Protein: peptide) at a final concentration of 3mg/ml of peptide and 7.5mg/ml protein. Crystals were grown at 293 K using the sitting-drop vapor diffusion method in drops containing 1μl protein solution mixed with 1 μL reservoir solution containing 30% PEG 4000, 0.1M TrisHCl pH 8.5 and 0.2M sodium acetate. The crystals were flash frozen in the mother liquor containing 30% ethylene glycol and diffraction data were collected at P13 at DESY-Hamburg. Data were processed, scaled and reduced with XDS [75], Pointless and programs from the CCP4 suite. […]"}, "[2]": {"system": "PLCγ1 nSH2 domain", "test": "AlphaLISA, isolated PLCγ1 nSH2", "settings": "phosphorylated; 300 nM each protein; domain tested individually", "method": "(§1) Fig 4 The PLCγ1 cSH2 domain is required for the binding of PLCγ1 to phosphorylated pK15 in vitro and may serve as a dominant-negative inhibitor. GST-fused pK15 cytoplasmic tail WT (A), or its truncated mutant N2 [51] (B), were phosphorylated in vitro by 2xStrep-Src and an AlphaLISA was performed with the indicated His-tagged fragments of PLCγ1. Mean and standard deviation from at least two independent experiments with two technical replicates each are depicted. GST fusion proteins of the N1 (C) or N2 (D) truncation mutants of the pK15 cytoplasmic tail were phosphorylated in vitro by 2xStrep-Src and their interaction with recombinant purified PLCγ1 tSH2 (tandem SH2) or SA (γ-specific array) domains was measured by AlphaLISA in the presence of increasing concentrations (300 nM, 600 nM, 900 nM, 1200 nM) of the purified PLCγ1 cSH2. […] After 48h lysates were collected and analysed by Western blot using an antibody to PLCγ1 pY^783 to assess the level of PLCγ1 phosphorylation. (F) The intensities of the pPLCγ1 bands shown in panel E were quantified by densitometry, normalized to the values obtained with the empty vector (EV) in the presence of pK15, and plotted as relative values. […]\n(§2) His-tagged PLCγ1 (SA, tSH2 or the isolated SH2 domains) was incubated at room temperature with GST-tagged K15P or its mutants for 1 hour. […] Emission at 615 nm was detected on BioTek Synergy 2 plate reader."}, "[3]": {"system": "PLCγ1 cSH2 R^694L", "test": "AlphaLISA, isolated PLCγ1 cSH2 R694L", "settings": "phosphorylated; 300 nM each protein", "method": "as §1, §2"}}}
{"molecule": "DDLpYEEVLFPRN [pK15 12mer, phosphorylated peptide representing the last 12 amino acids of pK15 CT (DDLp…)]", "values": [{"measurement": "binding site occupancy in crystal structure", "setting": "[1]", "value": "at lower occupancy peptide binding to the nSH2 domain was also observed"}]}
{"molecule": "B1", "values": [{"measurement": "interaction (AlphaLISA)", "setting": "[2]", "value": "not the nSH2 domain"}, {"measurement": "interaction (AlphaLISA)", "setting": "[3]", "value": "abolished"}]}
